The text below walks through data of article PMC6463862, “Adaptive and degenerative evolution of the S-Phase Kinase-Associated Protein 1-Like family in Arabidopsis thaliana” (PeerJ, 2019).

The target of experiment [1] is DIF (Arabidopsis (cDNA clone from the Arabidopsis Biological Resource Center)). The experiment can be described thus: two-hybrid; F-box proteins as GAL4-BD baits (pGBK-T7, AH109), ASK1/2 as GAL4-AD preys (pGAD-T7, Y187), mated; growth on SD-Leu-Trp-Ade-His + X-alpha-gal at 30 °C normalised to growth on SD-Leu-Trp, and beta-galactosidase activity assay (two independent assays); results told together.

For the next experiment, the target named is T1, JMJ22 (Arabidopsis (cDNA clone from the …, UniProt Q67XX3 1-502)).
T1 construct: F-box protein JMJ22; CDS PCR amplified from an ABRC cDNA clone and ligated in frame to the 3' end of the GAL4-BD CDS in pGBK-T7 (bait); source: yeast two-hybrid fusion
T1 sequence (looked up): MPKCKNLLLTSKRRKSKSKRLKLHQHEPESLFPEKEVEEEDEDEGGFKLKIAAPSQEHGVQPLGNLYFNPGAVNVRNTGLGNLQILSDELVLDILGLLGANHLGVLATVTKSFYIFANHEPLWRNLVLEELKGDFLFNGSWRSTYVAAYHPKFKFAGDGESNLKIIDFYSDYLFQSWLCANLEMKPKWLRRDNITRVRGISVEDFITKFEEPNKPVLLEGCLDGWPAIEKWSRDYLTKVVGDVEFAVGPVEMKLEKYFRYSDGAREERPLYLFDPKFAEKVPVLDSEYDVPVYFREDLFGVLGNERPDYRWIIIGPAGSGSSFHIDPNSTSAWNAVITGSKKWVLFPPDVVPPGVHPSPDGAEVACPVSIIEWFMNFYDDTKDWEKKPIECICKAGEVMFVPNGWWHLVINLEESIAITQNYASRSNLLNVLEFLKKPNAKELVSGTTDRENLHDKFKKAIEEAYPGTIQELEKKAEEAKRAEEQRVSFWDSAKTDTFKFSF
The description is as above. As to conditions: partners not purified.

B1: Arabidopsis Skp1-Like 1 (natural protein, A. thaliana, UniProt Q39255 1-160, looked up)
chain: MSAKKIVLKSSDGESFEVEEAVALESQTIAHMVEDDCVDNGVPLPNVTSKILAKVIEYCKRHVEAAASKAEAVEGAATSDDDLKAWDADFMKIDQATLFELILAANYLNIKNLLDLTCQTVADMIKGKTPEEIRTTFNIKNDFTPEEEEEVRRENQWAFE
notes: ASK1 (A. thaliana Skp1-Like 1); CDS PCR amplified from an ABRC cDNA clone and ligated in frame to the 3' end of the GAL4-AD CDS in pGAD-T7 (prey); also called ASK1; source: yeast two-hybrid fusion
As to B1, the fold interaction strength against ASK2 (in experiment [1]; in the experiment with JMJ22) was greater than 2 fold throughout.
